Ends that are not written are not given here. Me3 = trimethyl-lysine; Me2 = dimethyl-lysine

Holding throughout (test): peptide or protein array; SPOT peptides on cellulose membrane; 1 μM 6xHis-tagged MLL4 PHD cassette in TBS-T overnight at 4 °C; probed with anti-6xHis-HRP, chemiluminescence; signals relative to the H4K20me0 peptide (100%), spots of at least 50% taken as candidate binders
Holding throughout (settings): both partners purified

For experiment [1], the target named is T1, MLL4 PHD1–3 (residues 156–341) (UniProt O14686 156-341).
T1 construct: MLL4 (KMT2D, ALR), PHD fingers 1–3, residues 156–341; Detected on the array with anti-6xHis-HRP; The purification of the PHD constructs is not described separately; also called MLL4 PHD1–3 cassette; KMT2D PHD1–3; source: bacterially expressed recombinant
T1 sequence (looked up): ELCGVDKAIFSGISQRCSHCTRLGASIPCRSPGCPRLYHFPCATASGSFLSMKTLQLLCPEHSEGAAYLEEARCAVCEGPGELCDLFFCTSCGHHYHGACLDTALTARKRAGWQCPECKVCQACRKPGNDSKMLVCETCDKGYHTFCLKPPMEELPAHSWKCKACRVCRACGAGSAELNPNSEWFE

Experiment [2] deals with T2, MLL4 PHD4–6 (residues 1358–1572) (UniProt O14686 1358-1572).
T2 construct: MLL4 (KMT2D, ALR), PHD fingers 4–6, residues 1358–1572; Detected on the array with anti-6xHis-HRP; The purification of the PHD constructs is not described separately; also called MLL4 PHD4–6 cassette; KMT2D PHD4–6; source: bacterially expressed recombinant

For experiment [3], the target named is T3, MLL4 PHD7 (residues 5079–5152) (UniProt O14686 5079-5152).
T3 construct: MLL4 (KMT2D, ALR), PHD finger 7, residues 5079–5152; Detected on the array with anti-6xHis-HRP; The purification of the PHD constructs is not described separately; also called KMT2D PHD7; source: bacterially expressed recombinant
T3 sequence (O14686 5079-5152): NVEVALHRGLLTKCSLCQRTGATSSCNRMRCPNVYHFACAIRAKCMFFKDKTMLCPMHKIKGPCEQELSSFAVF

T2 sequence (O14686 1358-1572): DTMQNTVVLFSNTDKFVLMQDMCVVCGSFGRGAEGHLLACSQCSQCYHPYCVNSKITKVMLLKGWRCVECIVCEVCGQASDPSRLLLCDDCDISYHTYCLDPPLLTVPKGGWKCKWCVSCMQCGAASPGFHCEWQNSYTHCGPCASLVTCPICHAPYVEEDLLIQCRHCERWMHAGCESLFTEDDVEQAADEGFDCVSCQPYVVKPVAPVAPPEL

B1: CFP1 K335me3 peptide (peptide, UniProt Q9P0U4 325-345, looked up)
peptide: VKVKHVKRREK(Me3)KSEKKKEERY
notes: CFP1 (CXXC finger protein 1), human, peptide centred on K335 with 10 flanking residues on each side; held on the cellulose membrane of the array; source: synthetic peptide, SPOT synthesis on cellulose membrane
In the case of B1, the binding result in experiment [1] and in experiment [2] was “binds” in each case.

B2: CFP1 K331me1 peptide (peptide, UniProt Q9P0U4 321-341, looked up)
peptide: RKRAVKVKHVK(Me)RREKKSEKKK
notes: CFP1 (CXXC finger protein 1), human, peptide centred on K331 with 10 flanking residues on each side; held on the cellulose membrane of the array; also called K331 Kme1; source: synthetic peptide, SPOT synthesis on cellulose membrane
Take B2: the binding result in experiment [1] is recorded as “binds”.

B3: CFP1 K339me1 peptide (peptide, UniProt Q9P0U4 329-349, looked up)
peptide: HVKRREKKSEK(Me)KKEERYKRHR
notes: CFP1 (CXXC finger protein 1), human, peptide centred on K339 with 10 flanking residues on each side; held on the cellulose membrane of the array; source: synthetic peptide, SPOT synthesis on cellulose membrane
On to B3, for which the binding result in experiment [1] is “binds”.

B4: CFP1 K340me3 peptide (peptide, UniProt Q9P0U4 330-350, looked up)
peptide: VKRREKKSEKK(Me3)KEERYKRHRQ
notes: CFP1 (CXXC finger protein 1), human, peptide centred on K340 with 10 flanking residues on each side; held on the cellulose membrane of the array; source: synthetic peptide, SPOT synthesis on cellulose membrane
Consider B4, for which the binding result in experiment [2] is on record as “binds”.

B5: CFP1 K335me0 peptide (peptide, UniProt Q9P0U4 325-345, looked up)
peptide: VKVKHVKRREKKSEKKKEERY
notes: CFP1 (CXXC finger protein 1), human, peptide centred on K335 with 10 flanking residues on each side; held on the cellulose membrane of the array; also called unmethylated K335; source: synthetic peptide, SPOT synthesis on cellulose membrane
As for B5, the binding result in experiment [1], in experiment [2] and in experiment [3] was “binds” in each case.

B6: CFP1 K335me2 peptide (peptide, UniProt Q9P0U4 325-345, looked up)
peptide: VKVKHVKRREK(Me2)KSEKKKEERY
notes: as for B1
With B6, the binding result in experiment [1] and in experiment [2] was “binds” in each case.

B7: CFP1 K335me1 peptide (peptide, UniProt Q9P0U4 325-345, looked up)
peptide: VKVKHVKRREK(Me)KSEKKKEERY
notes: as for B1
As for B7, the binding result in experiment [1] and in experiment [2] was “binds” in each case.

B8: CFP1 K351me2 peptide (peptide, UniProt Q9P0U4 341-361, looked up)
peptide: KEERYKRHRQK(Me2)QKHKDKWKHP
notes: CFP1 (CXXC finger protein 1), human, peptide centred on K351 with 10 flanking residues on each side; held on the cellulose membrane of the array; source: synthetic peptide, SPOT synthesis on cellulose membrane
For the molecule B8, the binding result in experiment [2] is “binds”.

For the origin of these results see article PMC12551112, “Exploration into the MLL4/WRAD Enzyme-Substrate Network: Systematic In Vitro Identification of CFP1 as a Potential Non-Histone Substrate of the MLL4 Lysine Methyltransferase” (Epigenomes, 2025).
